This passage reports % blockade results from patent US20230235068A1.

This assay addresses extracellular domain portion of LEPR protein expressed with a C-terminal human Fc tag (human). Briefly: competition ELISA, 10 nM hLEPR-hFc binding to coated hLeptin; soluble hLeptin as competitor.

extracellular domain portion of LEPR protein expressed with a C-terminal human Fc tag (human), sequence (chain, as listed by the source limits assumed): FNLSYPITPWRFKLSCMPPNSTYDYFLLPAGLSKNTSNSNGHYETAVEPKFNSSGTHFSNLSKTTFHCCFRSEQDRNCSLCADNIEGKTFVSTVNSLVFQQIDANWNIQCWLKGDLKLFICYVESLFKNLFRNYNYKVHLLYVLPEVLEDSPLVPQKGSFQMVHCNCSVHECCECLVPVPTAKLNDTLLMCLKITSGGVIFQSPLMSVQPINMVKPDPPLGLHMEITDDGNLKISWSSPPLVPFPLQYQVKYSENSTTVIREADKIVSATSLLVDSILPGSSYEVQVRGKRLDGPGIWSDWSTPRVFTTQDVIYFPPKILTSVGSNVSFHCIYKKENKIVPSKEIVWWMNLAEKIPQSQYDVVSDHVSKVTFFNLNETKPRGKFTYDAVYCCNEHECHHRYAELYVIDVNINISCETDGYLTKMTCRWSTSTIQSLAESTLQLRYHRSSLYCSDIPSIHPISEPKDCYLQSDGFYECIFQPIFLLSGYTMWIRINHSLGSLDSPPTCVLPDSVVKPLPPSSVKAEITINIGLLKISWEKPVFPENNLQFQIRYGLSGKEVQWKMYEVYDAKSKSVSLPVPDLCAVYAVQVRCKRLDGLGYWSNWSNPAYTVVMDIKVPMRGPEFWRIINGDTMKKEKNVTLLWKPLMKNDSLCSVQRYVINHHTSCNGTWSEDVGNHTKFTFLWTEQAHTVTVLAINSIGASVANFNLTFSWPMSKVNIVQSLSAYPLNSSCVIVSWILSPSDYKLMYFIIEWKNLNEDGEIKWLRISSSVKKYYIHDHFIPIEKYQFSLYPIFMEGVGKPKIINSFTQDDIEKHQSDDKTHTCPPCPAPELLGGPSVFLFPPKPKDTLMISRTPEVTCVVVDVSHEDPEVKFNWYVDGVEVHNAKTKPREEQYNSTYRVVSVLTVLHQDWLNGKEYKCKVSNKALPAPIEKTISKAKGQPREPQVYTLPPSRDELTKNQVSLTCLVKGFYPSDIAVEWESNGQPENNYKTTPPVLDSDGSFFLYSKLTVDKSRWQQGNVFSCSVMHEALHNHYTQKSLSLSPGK

Consider “human Leptin (from UniProt P41159 22-167) (ligand)”, for which the % blockade at 500 nM amounted to 99%.
